Experimental data as given in the nanobody polyreactivity screen of Harvey et al. (2022).

Test: yeast display, Sf9 membrane polyspecificity reagent, FACS + sequencing; frameworks hold sequencing errors
Method in brief: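 Galactose-induced (36–48 hours) yeast carrying a synthetic nanobody display library were exposed to 10% biotinylated, detergent-solubilized Sf9 membrane reagent at 4 °C for 1 hour. FACS followed streptavidin microbead enrichment, using low and high (top ~1%) gates for expression (anti-HA) and reagent binding (streptavidin). Colony PCR, MiSeq 2 × 250 sequencing and CDR-length filtering followed. Labels for polyreactivity reflect the gate of origin.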

Sequence	polyreactivity (PSR sort gate)
QVQLVESGGGLVQAGGSLRLSCAASGFIYSYAMGWYRQAPGKERELVAAISRSGGSTYYADSVKGRFTISRDNAKNTVYLQKNSLKPEDTAVYYCAALRRYPRDNIMYYYPYDYWGQGTQVTVSS	high polyreactivity
QVQLVESGGGLVQAGGSLRLSCAASGFKYAMGWYRQATGKERELVAAISSGGITSYADSVKGRFTISRDNAKNTVYLQMNSLKPEDTAVYYCNARLRHSQYAYYYWGQGTQVTVSS	high polyreactivity
QVQLVESGGGLVQAGGSLRLSCAASGFMFTRYAMGSYRQAPGKERELVAAISWIGTSTYYADSVKGRCTISRDNAKNTVFLQMNSLTPEDTAVYYCNALLYSTGRPGFYLGYDYWGQGTQVTVSS	high polyreactivity
QVQLVESGGGLVQAGGSLRLSCAASGFNFAFYDMGWYRQAPGKERELVAAISWGGSTYYADSVKGRFTISRDNAKNTVYLQMNRLKPEDTAVYYCAARLSRSYRYGYWGQGTQVTVSS	high polyreactivity
QVQLVESGGGLVQAGGSLRLSCAASGFNFGSNAMGWYRQAPGKERELVAAITYSGASTYYADSVKGRFTISRDNAKNTVYLQMNSLKPEDTAVYSCAADLTSYYGGDYWGQGTQVTVSS	low polyreactivity
QVQLVESGGGLVQAGGSLRLSCAASGFNFPYYAMGWYRQAPGKERALVAAIRISGGSTYYADSVKGRFTISRDNAKNTVYLQMNSLKPEDTAVYYCAADYRYRSRFYYWGQGTQVTVSS	low polyreactivity
QVQLVESGGGLVQAGGSLRLSCAASGFNFRGNAMGWYRQAPGKERELVARISGSGDSTYYADSVKGRFTISRDNAKNTVYLQMNSLKPEDTAVYYCNADVFPAVEAYDSSIEYYSWGQGTQVTVSS	low polyreactivity
QVQLVESGGGLVQAGGSLRLSCAASGFNFRRNAMGWYRQAPGKERELVAVITSSARTNYADSVKGRFTISRDNAKNTVYLQMNSLNPEDTAVYSCNAYRYRQSSSDKYGYWGQGTQVTVSS	high polyreactivity
QVQLVESGGGLVQAGGSLRLSCAASGFNFRYYAMGWYRQAPGKERELVAAISASSGRTYYADSVKGRFTISRDNAKNTVYLQMNSLKPEDTAVYYCAAEYIRNGDYGLDYWGQGTQVTVSS	high polyreactivity
QVQLVESGGGLVQAGGSLRLSCAASGFNFRYYAMGWYRQAPGKERELVAAISWSGGTTYYADSVKGRFTISRDNAKNTVYLQMNSLKPEDTAVYYCAARVARFSVPYDYWGQGTQVTVSS	low polyreactivity
QVQLVESGGGLVQAGGSLRLSCAASGFNFSLNAMGWYRQAPGKERELVAAISRSGGRTYYADSVKGRFTISRDNAKNTVYLQMNSLKPEDTAVYYCAAVPITWYAYDYWGQGTQVTVSS	high polyreactivity
QVQLVESGGGLVQAGGSLRLSCAASGFNFSQYAMGWYRQAPGKERELVAAISSGSTYADSVKGRFTISRDNAKNSVYLQMNSLKREDTAVYYCANDPFSRGSRRYDYWGQGTQVTVSS	low polyreactivity
QVQLVESGGGLVQAGGSLRLSCAASGFNFTLNTMGWYRQAPGKERELVAAINSGDSTYADSVKGRFTISRDNAKNTVYLQMNSLKPEDTAVYYCNADPDWWYPFNYWGQGTQVTVSS	low polyreactivity
QVQLVESGGGLVQAGGSLRLSCAASGFNFYDYTMGWYRQAPGKERELVAAISWSGGSTYHADSVKGRFTISRDTAKNTVYLQMNSLKPEDTAVYYCNADYGYYKSGYGFDYWGQGTKVTVSS	low polyreactivity
QVQLVESGGGLVQAGGSLRLSCAASGFNFYGYVMGWYRQAPGKERELVAVISRSGDRTSYADSVKGRFTISRDTAKNTVYLQMNSLKPEDTAVYYCAAESGWGAAGEELDYWGQGTQVTVSS	high polyreactivity
QVQLVESGGGLVQAGGSLRLSCAASGFNFYRNTMGWYSQAPGKEREFVAAIRWRGGSTYYADSVKGRFTISRDNAKNTVYLQMNSLKPEDTAVYYCAADTRPGYSGFEYWGQGTQVTVSS	high polyreactivity

Sequence	polyreactivity (PSR sort gate)
QVQLVESGGGLVQAGGSLRLSCAASGFNFYRYTLGWYRQAPGKERELVASITRRCGSTYYADSVKGRFTISRDNAKHTVYLQMNILKQEDTAEYYCNDATPVWQSGTYDYWGQGTQVTVSS	high polyreactivity
QVQLVESGGGLVQAGGSLRLSCAASGFNFYTNVMGWYRPAPGKERELVAAINSGGSTNYADSVKGRFTISRDNAKNTVYLQMNSLKPEDTAVYYCAARVARISVPYDYWGQGTQVTVSS	low polyreactivity
QVQLVESGGGLVQAGGSLRLSCAASGFNYGIYAMGWYRQAPGKERELVAAISRGGGSTYYADSVKGRFTISRDNAKNTVYLQMNSLKPEDTAVYYCAARYQSPYDYWGQGTQVTVSS	high polyreactivity
QVQLVESGGGLVQAGGSLRLSCAASGFNYYRYVMVWYRQAPGKERELVAAITTSGGSTYYADSVKGRFTISRDNAKNTVYLQMNSLKPEDTAVYYCAAVYIPSRQWYDYWGQGTQVTVSS	high polyreactivity
QVQLVESGGGLVQAGGSLRLSCAASGFSFATYAMGWYRQAPGKERELVAAISSTGGRTYYAVSVKGRFTISRDNAKNNVYLQMNSLKPEDTAVYYCAADWRVTYDYWGQGTQVTVSS	high polyreactivity
QVQLVESGGGLVQAGGSLRLSCAASGFSFGIYAMGWYRQAPGKERELYADSVKGRFTISRDNAKNTVYLQMNSLKPEDTAVYYCAADYWYGAGLPHGTEFDYWGQGTQVTVSS	low polyreactivity
QVQLVESGGGLVQAGGSLRLSCAASGFSFRGYAMGWYRQAPGKERELVAAINYSGGSTYYADSVKGRFTISRDNAKNTVYLQMNSLKPEDTAVYYCAAGKRGDDDYWGQGTQVTVSS	high polyreactivity
QVQLVESGGGLVQAGGSLRLSCAASGFTFAAYAMGWYRPAPGKERELVAAITSRDGTTYYADSVKGRFTISRNNAKNTVYLQMNSLKPEDTAVYYGAKDHFTWGVSEDDYWRQGTQVTVSS	low polyreactivity
QVQLVESGGGLVQAGGSLRLSCAASGFTFAHNAMGWYRQAPGKERELVAAITSRGGSTYYADSVKGRFTISRDNAKNTVYLQMNSLKPEDTAVYYCAARGVNRQVFNYWGQGTQVTVSS	high polyreactivity
QVQLVESGGGLVQAGGSLRLSCAASGFTFAKNAMGWYRQAPGKERELVATISRSGGSTYYADSVKGRFTLSRDNAKNTVYLQMNSLKREVNAVYYCNKKYNYLYDYWGQGTQVTVSS	high polyreactivity
QVQLVESGGGLVQAGGSLRLSCAASGFTFAKYAMGWSRQAPGKERELVAAIRSRGDTTYYADSVKGRFTISRDNAKNTVYFQMNSLKPEDTAVYYCAARSYFLVDCSRYDYWGQGSQVTVSS	high polyreactivity
QVQLVESGGGLVQAGGSLRLSCAASGFTFAKYAMGWYRQAPGKERELVAAISSNGGTTYYADSVKGRFTISRDNAKNTVYLQMNSLKPEDTAVYYCAVRSRVYPSRVKYDYWGQGTQVTVSS	high polyreactivity
QVQLVESGGGLVQAGGSLRLSCAASGFTFAPNAMGWYRQAPGKEREFVAVITYRSTSTFYADSVKGRFTISRDNAKNTVYLQMNSLKPEDTAVYYCNAKYLWYGRYNYWGQGTQVTVSS	high polyreactivity
QVQLVESGGGLVQAGGSLRLSCAASGFTFAPYALGWYRQAPGKERELVAAIRRSGGSTYYADSVKGRFTISRDNAKNTVYLQMNSLKPEDTAVYYCAASTYQNGYGYWGQGTQVTVSS	high polyreactivity
QVQLVESGGGLVQAGGSLRLSCAASGFTFARNAMGWYRQAPGKERELVASITSGGSTNYADSVKGRFTISRDNAKNTVYLQMNSVKPEDSAVYYCNALWWAPGRPGEEIYRILDYWGQGTQVTVSS	low polyreactivity
QVQLVESGGGLVQAGGSLRLSCAASGFTFARYAMGWYIQAPGKEREFVAAISLSTTSTYYADSVKGRFTISRDNAKNTVYLQMNSLKPEDTAVYYCATDIVGPHVDYWGQGTQVTVSS	low polyreactivity
